Source: publication PMC6003227 (Molecular Biology of the Cell, 2018)

Biological target: T1, MBP-Cdc12(1–765-6A) (S. pombe, UniProt Q10059 1-765, T20A | T22A | S64A | T95A | T151A | S463A)
T1 sequence (looked up): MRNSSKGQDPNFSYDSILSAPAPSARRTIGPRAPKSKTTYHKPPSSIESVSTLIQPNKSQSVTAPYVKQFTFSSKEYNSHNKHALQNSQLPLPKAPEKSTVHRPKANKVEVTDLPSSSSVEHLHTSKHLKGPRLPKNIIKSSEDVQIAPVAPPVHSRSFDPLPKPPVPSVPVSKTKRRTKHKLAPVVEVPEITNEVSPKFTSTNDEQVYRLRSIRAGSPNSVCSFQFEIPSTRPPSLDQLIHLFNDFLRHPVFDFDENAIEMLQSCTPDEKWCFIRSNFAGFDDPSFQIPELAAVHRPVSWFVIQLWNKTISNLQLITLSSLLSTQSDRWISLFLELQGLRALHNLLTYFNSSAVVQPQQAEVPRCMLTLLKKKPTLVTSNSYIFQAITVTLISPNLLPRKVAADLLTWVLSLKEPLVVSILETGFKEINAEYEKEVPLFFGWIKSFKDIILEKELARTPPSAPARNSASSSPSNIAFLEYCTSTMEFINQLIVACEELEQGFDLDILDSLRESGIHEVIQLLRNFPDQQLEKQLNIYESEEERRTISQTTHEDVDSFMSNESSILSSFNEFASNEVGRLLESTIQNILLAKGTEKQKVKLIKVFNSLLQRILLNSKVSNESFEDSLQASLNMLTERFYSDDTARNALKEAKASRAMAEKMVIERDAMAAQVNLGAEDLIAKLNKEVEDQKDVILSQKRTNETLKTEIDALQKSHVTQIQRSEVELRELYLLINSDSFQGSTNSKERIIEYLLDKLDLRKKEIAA
Test: pull-down

B1: Cdc15 F-BAR(19–312) (domain or fragment, S. pombe, UniProt Q09822 19-312, looked up)
chain: SVKFRDNFWGSEDAGMDALMSRTKSSLSVLESIDEFYAKRASIEREYASKLQELAASSADIPEVGSTLNNILSMRTETGSMAKAHEEVSQQINTELRNKIREYIDQTEQQKVVAANAIEELYQKKTALEIDLSEKKDAYEYSCNKLNSYMRQTKKMTGRELDKYNLKIRQAALAVKKMDAEYRETNELLLTVTREWIDRWTEVCDAFQHIEEYRLEFLKTNMWAYANIISTACVKDDESCEKIRLTLENTNIDEDITQMIQNEGTGTTIPPLPEFNDYFKENGLNYDIDQLISK
binding result: binds
